# Experimental data as given in patent US20220135656A1 (NIMA ACQUISITION, published 2022).
# Values joined by “and” are separate entries in the source; they are usually repeats but may differ in a detail not shown here. Equal entries are not always repeated. Ends that are not written are not given here. * marks the point of attachment. Biotin = O=C1N[C@H]2[C@H](CS[C@H]2CCCCC(=O)*)N1
# T1: peptide 43 (QQQQQQQQQQ)
# T1 peptide: Biotin-QQQQQQQQQQ
# T2: peptide PQLPYPQPQL (SEQ ID NO: 57)
# T2 construct: Crude 10-mer of the peptide library; also called group A peptide
# T2 peptide: Biotin-PQLPYPQPQL
# T3: peptide PQQPYPQSQP (SEQ ID NO: 58)
# T3 construct: Crude 10-mer of the peptide library; also called group A peptide
# T3 peptide: Biotin-PQQPYPQSQP
# T4: peptide PPQQPYPQPQ (SEQ ID NO: 54)
# T4 construct: Crude 10-mer of the peptide library; also called group A peptide
# T4 peptide: Biotin-PPQQPYPQPQ
# T5: peptide PPQLPYPQPP (SEQ ID NO: 59)
# T5 construct: Crude 10-mer of the peptide library; also called group A peptide
# T5 peptide: Biotin-PPQLPYPQPP
# T6: peptide QLPYPQPQLP (SEQ ID NO: 52)
# T6 construct: Crude 10-mer of the peptide library; also called group A peptide
# T6 peptide: Biotin-QLPYPQPQLP
# T7: peptide QPQLPYPQPQ (SEQ ID NO: 56)
# T7 construct: Crude 10-mer of the peptide library; also called group A peptide
# T7 peptide: Biotin-QPQLPYPQPQ
# T8: peptide PQLPYPQPQP (SEQ ID NO: 53)
# T8 construct: Crude 10-mer of the peptide library; also called group A peptide
# T8 peptide: Biotin-PQLPYPQPQP
# T9: peptide PQPQLPYPQP (SEQ ID NO: 51)
# T9 construct: Crude 10-mer of the peptide library; also called group A peptide
# T9 peptide: Biotin-PQPQLPYPQP
# T10: peptide SPQQPYPQPQ (SEQ ID NO: 55)
# T10 construct: Crude 10-mer of the peptide library; also called group A peptide
# T10 peptide: Biotin-SPQQPYPQPQ
# T11: peptide PQQPYPQPQP (SEQ ID NO: 50)
# T11 construct: Crude 10-mer of the peptide library from antigen 1/2/3; also called group A peptide
# T11 peptide: Biotin-PQQPYPQPQP
# T12: peptide YPQPQLPYPQ (SEQ ID NO: 61)
# T12 construct: Crude 10-mer of the peptide library; also called group B peptide
# T12 peptide: Biotin-YPQPQLPYPQ
# T13: peptide PFRPQQPYPQ (SEQ ID NO: 62)
# T13 construct: Crude 10-mer of the peptide library; also called group B peptide
# T13 peptide: Biotin-PFRPQQPYPQ
# T14: peptide PFPPQQPYPQ (SEQ ID NO: 60)
# T14 construct: Crude 10-mer of the peptide library; also called group B peptide
# T14 peptide: Biotin-PFPPQQPYPQ
# How the values were obtained:
# [1] = molecular target: T15, PWG-gliadin (wheat); assay: SPR (Biacore T200), gliadin amine-coupled, antibody as analyte; 'as shown in the examples'
# T15 construct: also called Gluten; glutenin
# [2] = molecular target: T15, PWG-gliadin; assay: SPR, Biacore T200; Glutenin amine-coupled to the chip, antibody as analyte 3-243 nM; 1:1 binding fit; Chi2 16 RU2, U-value 2
# Protocol: (§1) In this experiment, glutenin protein was coated through amine coupling method, the antibodies were flowed over the sensor chip as analytes. The experiment was carried out using the following protocol.
# (§2) Coat glutenin onto the Series S Sensor Chip CM5 via primary amine groups using the following conditions: [0123] (1) Equilibrate: HBS-EP, flow rate 10 μl/min, 5 min; [0124] […] (3) Couple ligand: inject glutenin (15 μg/ml, 10 mM sodium acetate, pH 4.5), flow rate 10 μl/min, until ˜300 RU of glutenin is coated; [0126] (4) Deactivate excess reactive groups: inject ethanolamine, flow rate 10 μl/min, 7 min.
# (§3) In this study, the binding affinities between glutenin and three monoclonal antibodies were determined. The experiment was carried out where glutenin was amine coupled to the sensor chip and antibodies were used as analytes. The result of is with good curve fitting and low U-values, and thus is reliable.
# [3] = molecular target: T1, peptide 43 (QQQQQQQQQQ); assay: peptide ELISA, biotinylated peptide captured on streptavidin
# [4] = molecular target: T2, peptide PQLPYPQPQL (SEQ ID NO: 57); assay: peptide ELISA; biotinylated crude peptide on streptavidin, mAb 0.5 µg/ml; value given for group A
# [5] = molecular target: T3, peptide PQQPYPQSQP (SEQ ID NO: 58); assay: as above
# [6] = molecular target: T4, peptide PPQQPYPQPQ (SEQ ID NO: 54); assay: as above
# [7] = molecular target: T5, peptide PPQLPYPQPP (SEQ ID NO: 59); assay: as above
# [8] = molecular target: T6, peptide QLPYPQPQLP (SEQ ID NO: 52); assay: as above
# [9] = molecular target: T7, peptide QPQLPYPQPQ (SEQ ID NO: 56); assay: as above
# [10] = molecular target: T8, peptide PQLPYPQPQP (SEQ ID NO: 53); assay: as above
# [11] = molecular target: T9, peptide PQPQLPYPQP (SEQ ID NO: 51); assay: as above
# [12] = molecular target: T10, peptide SPQQPYPQPQ (SEQ ID NO: 55); assay: as above
# [13] = molecular target: T11, peptide PQQPYPQPQP (SEQ ID NO: 50); assay: as above
# [14] = molecular target: T12, peptide YPQPQLPYPQ (SEQ ID NO: 61); assay: peptide ELISA; biotinylated crude peptide on streptavidin, mAb 0.5 µg/ml; value given for group B
# [15] = molecular target: T13, peptide PFRPQQPYPQ (SEQ ID NO: 62); assay: as above
# [16] = molecular target: T14, peptide PFPPQQPYPQ (SEQ ID NO: 60); assay: as above
# [17] = molecular target: T15, PWG-gliadin; assay: SPR, Biacore T200; Glutenin amine-coupled to the chip, antibody as analyte 3-243 nM; 1:1 binding fit; Chi2 29.9 RU2, U-value 2
# Protocol: as §1, §2, §3
# [18] = molecular target: T12, peptide YPQPQLPYPQ (SEQ ID NO: 61); assay: peptide ELISA; group B; the number is missing in the cell
# [19] = molecular target: T13, peptide PFRPQQPYPQ (SEQ ID NO: 62); assay: as above
# [20] = molecular target: T14, peptide PFPPQQPYPQ (SEQ ID NO: 60); assay: as above
Kd [1],binding result [3],OD450nm [4],OD450nm [5],OD450nm [6],OD450nm [7],OD450nm [8],OD450nm [9],OD450nm [10],OD450nm [11],OD450nm [12],OD450nm [13],Binder,also measured
< 50 nM and ~30 nM,no binding,~1,~1,~1,~1,~1,~1,~1,~1,~1,~1,"14G11 monoclonal antibody (antibody, IgG1, V domains shown, also called 14G11 monoclonal Ab) VH: QIQLVQSGPEMKKPGETVKIFCKASGYTLTDYSMHWVKQAPGKGLKWMGWINTETGEPTYADDFKGRCAFSLETSVSTAFLQINNLKNEDMGTYFCASSGAWFSYWGQGTLVTVSA VL: DVLLTQTPLSLPVSLGDQASISCRSSQTIVQINGNTHLEWFLQKPGQSPKLLIYKVSNRFSGVPDRFSGSGSGTDFTLKISRVEAEDLGIYYCFQGSHVPFTFGSGTKLEIK",Kd [2]: 30.6 nM; koff [2]: 0.00225 s⁻¹; kon [2]: 73600 M⁻¹ s⁻¹; OD450nm [14]: < 0.5; OD450nm [15]: < 0.5; OD450nm [16]: < 0.5
< 10 nM and 5 nM to 6 nM (2×),no binding,~2,~2,~2,~2,~2,~2,~2,~2,~2,~2,"13F6 monoclonal antibody (antibody, IgG2b, V domains shown, also called 13F6 monoclonal Ab) VH: QIQLVQSGPELKKPGETVKISCKASGYTFTDYSMHWVRQAPGKGLKWMGWINTETGEPTYADDFKGRFAFSLETSASTAYLQINNLKNEDTATHFCAPSVAWFAYWGQGTLVTVST VL: DVLMTQTPLSLSVSLGDQASISCRSSQSIVQSNGNTHLEWFLQKPGQSPKLLIYKVSNRFSGVPDRFSGSGSGTDFTLKISRVEAEDLGVYYCFQGSHVPFTFGSGTKLEIK",Kd [17]: 5.81 nM; koff [17]: 0.000663 s⁻¹; kon [17]: 114000 M⁻¹ s⁻¹; binding result [18]: binds; binding result [19]: binds; binding result [20]: binds
